The numbers were not newly measured in publication PMC3634864, which cites them from elsewhere.

As a reminder, the Kd is a measure of binding affinity in units of concentration.

In this series the target is Hemoglobin (Homo sapiens) (UniProt P69905).
UniProt P69905, sequence (P69905 2-142, chain 1 of 2): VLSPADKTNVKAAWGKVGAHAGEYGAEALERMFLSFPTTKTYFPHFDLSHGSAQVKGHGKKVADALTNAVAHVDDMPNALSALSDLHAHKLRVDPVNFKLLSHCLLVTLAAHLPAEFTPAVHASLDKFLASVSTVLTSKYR
UniProt P69905, sequence (P68871 2-147, chain 2 of 2, further chain): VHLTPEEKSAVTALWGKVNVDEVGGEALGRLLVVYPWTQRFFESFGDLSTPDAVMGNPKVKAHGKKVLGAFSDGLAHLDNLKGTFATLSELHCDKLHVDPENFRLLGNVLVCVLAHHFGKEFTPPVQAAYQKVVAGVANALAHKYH

With Haptoglobin (from UniProt P00738), the Kd was less than 1 pM.
